Laboratory results as given in the supplement of paper PMC9732359.
± gives the uncertainty stated by the source.

Assay: protein stability index of a GFP-peptide fusion (yeast GPS) (PSI 1-4); higher = more stable; sorted into four equal gates, so the index is relative within each strain
Summary of the method: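 Tiled 17-residue peptides from yeast proteins were fused downstream of GFP on a plasmid that also expresses Cherry, and the pooled library was carried in yeast. Mid-log cultures grown in leucine-free medium were sorted into four equal gates by GFP/Cherry fluorescence ratio. Plasmids from each gate were PCR-amplified and Illumina-sequenced, and reads were assigned to strains by barcodes. Each peptide's protein stability index is the sum, over gates, of the gate's read frequency multiplied by its gate number.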

Sequence	protein stability index (doa10∆)	protein stability index (pdr5∆)	protein stability index (san1∆)	protein stability index (ubr1∆)
AKKQNRPLPQWIRLRTN [RPL39]	1.95 ± 0.063	2.69 ± 0.043	1.26 ± 0.082	2.44 ± 0.043
AFHNNLKFLYLLDAYSH [MED1]	1.16 ± 0.07	1.25 ± 0.049	1.16 ± 0.1	1.26 ± 0.042
DYYQSIYAKYGAKGSTL [FAS2]	2.85 ± 0.094	2.79 ± 0.07	2.71 ± 0.067	3.13 ± 0.076
VETKLETKVDELRYQSH [DSN1]	2.86 ± 0.088	3.22 ± 0.074	3.31 ± 0.058	3.08 ± 0.073
VFLFDIEKVDRENMICK [RRI2]	3.17 ± 0.17	3.24 ± 0.14	2.88 ± 0.19	3.29 ± 0.12
DVQKSSDSSSEDEVKVE [YLR335W/NUP2]	2.7 ± 0.098	2.87 ± 0.092	2.69 ± 0.099	2.31 ± 0.044
DYIKDEQRHLKRELKRA [RPT3]	2.25 ± 0.058	2.06 ± 0.056	1.98 ± 0.14	1.68 ± 0.037
EKESVEKQHENAVLELG [SMC3]	3.36 ± 0.2	3.52 ± 0.13	2.9 ± 0.1	3.42 ± 0.073
ISMNAPVFVDLEGETDP [RPO26]	–	2.78 ± 0.3	–	3 ± 0.19
LVSNPHEIYGSMPLEQL [SRB4]	3.01 ± 0.12	2.26 ± 0.065	3.1 ± 0.19	1.89 ± 0.1
KELFGEDEDEDLFGDSN [SSN2]	3.32 ± 0.2	3.54 ± 0.2	3.21 ± 0.27	3.67 ± 0.2
MENTLGEGSTVNASVDV [SWI3]	–	–	–	3.54 ± 0.21
VISMFVLPIFTTVFFSR [YML031W/NDC1]	1.38 ± 0.046	1.16 ± 0.065	1.17 ± 0.11	1.16 ± 0.057
VKFYEIFNFDQLVEITE [SRB8]	1.24 ± 0.11	1.35 ± 0.088	1.58 ± 0.14	1.37 ± 0.058
ILLQHKEKLTVQDCRYS [POP1]	2.53 ± 0.054	2.45 ± 0.049	2.31 ± 0.05	2.42 ± 0.03
QFVETIVSKSIEMYVQE [RPN2]	1.51 ± 0.13	–	1.05 ± 0.11	1.15 ± 0.2
NLHAEGWPKLQLGPQTP [ECM29]	2.43 ± 0.18	2.74 ± 0.18	–	2.9 ± 0.24
QLYFQKNGAQDLVLQIL [RRI2]	2.6 ± 0.12	2.81 ± 0.12	2.32 ± 0.097	2.62 ± 0.048
LHRLTPKNVKGEEDADE [RPN1]	3.65 ± 0.26	–	–	–
SRMFEEVSGSIQYKKEY [SMC1]	3.09 ± 0.057	2.02 ± 0.06	2.37 ± 0.075	3.21 ± 0.057
SAAELERLDKDKDRDTR [SNF5]	1.76 ± 0.087	1.46 ± 0.14	1.9 ± 0.12	2.95 ± 0.11
FASIPVSNSISRLGEEN [SNU114]	2.31 ± 0.058	2.63 ± 0.051	1.81 ± 0.081	2.48 ± 0.059
RRKTTKQNSSSDINQND [YDL088C/ASM4]	3.16 ± 0.096	3.15 ± 0.098	2.96 ± 0.083	2.95 ± 0.059
VQKSTKTFSYKRPSTFY [RPL20A]	2.73 ± 0.15	3.34 ± 0.084	3.06 ± 0.085	2.23 ± 0.065
HKCDELITLFNKGELET [RPO31]	2.72 ± 0.095	3.15 ± 0.07	2.98 ± 0.094	2.92 ± 0.1
EFMAGFNIISMTLKEMY [SMC4]	–	2.83 ± 0.24	3.21 ± 0.11	3.21 ± 0.089
NALWILVDLVSHFSPDI [ITC1]	1.55 ± 0.07	1.56 ± 0.079	1.67 ± 0.11	1.95 ± 0.051
EELRGQQTEHETEIKDL [SMC4]	3.34 ± 0.13	3.43 ± 0.094	3.48 ± 0.067	3.37 ± 0.053
